What was measured:
CDC2/cyclin B complex = CDC2/cyclin B complex (UniProt P06493); assay: cell-based or functional assay
CDK4/cyclin D1 complex [1] = molecular target: CDK4/cyclin D1 complex (UniProt P11802); assay: cell-based or functional assay
CDK2/cyclin A complex = CDK2/cyclin A complex (UniProt P24941); assay: cell-based or functional assay
CDK2/cyclin E complex = CDK2/cyclin E complex (UniProt P24941); assay: cell-based or functional assay
CDK4/cyclin D1 complex [2] = molecular target: CDK4/cyclin D1 complex (UniProt P11802); assay: in vitro kinase inhibition assay (32P incorporation into GST-Rb)

Sequence of CDK4/cyclin D1 complex (P11802 whole entry, chain 1 of 2): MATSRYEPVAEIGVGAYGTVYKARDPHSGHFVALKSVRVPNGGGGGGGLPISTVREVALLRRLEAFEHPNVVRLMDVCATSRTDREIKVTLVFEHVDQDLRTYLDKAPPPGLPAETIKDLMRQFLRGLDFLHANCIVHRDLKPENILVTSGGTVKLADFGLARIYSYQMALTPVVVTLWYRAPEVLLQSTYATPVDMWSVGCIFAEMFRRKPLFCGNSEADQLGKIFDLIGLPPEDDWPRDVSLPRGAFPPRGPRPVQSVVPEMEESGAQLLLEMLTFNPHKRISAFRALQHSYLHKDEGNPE
Sequence of CDK4/cyclin D1 complex (P24385 whole entry, chain 2 of 2, further chain): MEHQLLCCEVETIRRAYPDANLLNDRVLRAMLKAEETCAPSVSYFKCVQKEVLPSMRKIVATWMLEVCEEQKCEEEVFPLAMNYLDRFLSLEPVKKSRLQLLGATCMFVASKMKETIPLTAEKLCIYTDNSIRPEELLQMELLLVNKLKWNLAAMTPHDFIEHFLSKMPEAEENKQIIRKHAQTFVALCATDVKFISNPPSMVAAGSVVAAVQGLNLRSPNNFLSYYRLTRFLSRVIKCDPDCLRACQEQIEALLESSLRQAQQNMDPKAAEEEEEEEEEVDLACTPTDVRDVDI
Sequence of CDC2/cyclin B complex (P06493 whole entry, chain 1 of 2): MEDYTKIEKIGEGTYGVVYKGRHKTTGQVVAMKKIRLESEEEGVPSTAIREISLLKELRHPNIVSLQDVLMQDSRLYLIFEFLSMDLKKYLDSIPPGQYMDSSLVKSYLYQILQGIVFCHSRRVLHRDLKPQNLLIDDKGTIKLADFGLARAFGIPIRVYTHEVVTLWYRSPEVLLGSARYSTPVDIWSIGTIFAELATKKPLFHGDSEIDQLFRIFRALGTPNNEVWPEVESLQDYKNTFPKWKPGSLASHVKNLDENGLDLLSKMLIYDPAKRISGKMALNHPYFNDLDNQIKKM
Sequence of CDC2/cyclin B complex (P14635 whole entry, chain 2 of 2, further chain): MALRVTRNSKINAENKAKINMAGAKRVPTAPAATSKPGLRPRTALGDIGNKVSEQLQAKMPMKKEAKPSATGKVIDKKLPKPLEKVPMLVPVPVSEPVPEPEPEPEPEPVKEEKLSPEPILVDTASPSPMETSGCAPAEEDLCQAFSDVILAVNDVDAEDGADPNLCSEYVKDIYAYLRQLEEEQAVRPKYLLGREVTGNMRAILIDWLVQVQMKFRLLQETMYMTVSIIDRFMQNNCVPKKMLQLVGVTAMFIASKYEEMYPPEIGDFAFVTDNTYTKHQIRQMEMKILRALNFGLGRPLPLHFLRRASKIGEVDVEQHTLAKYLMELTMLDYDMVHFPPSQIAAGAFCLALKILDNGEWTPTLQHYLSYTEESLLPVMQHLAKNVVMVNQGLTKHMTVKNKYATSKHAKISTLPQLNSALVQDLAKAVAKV

| IC50, in vitro kinase assay (CDC2/cyclin B complex) [nM] | IC50, in vitro kinase assay (CDK4/cyclin D1 complex [1]) [nM] | IC50, in vitro kinase assay (CDK2/cyclin A complex) [nM] | IC50, in vitro kinase assay (CDK2/cyclin E complex) [nM] | Ki (CDK4/cyclin D1 complex [2]) [nM] | Substance |
| --- | --- | --- | --- | --- | --- |
| 20 | 63 |  |  |  | human p27 (full length, 6xHis and HA tagged) (from UniProt P46527 1-198) |
| 15 | 25 | 25 | 30 | 23 | p27-p16 fusion protein |

From patent US6420345
